The text below walks through data of article PMC7967050 (Advanced Science, 2021).

Test [1] deals with T1, CD38 on the cell surface (RPMI8226, Daudi, hPBMC) (Homo sapiens, UniProt P28907).
T1 construct: human CD38, endogenous on the surface of RPMI8226, Daudi and PBMC cells; In the functional rows the same protein is also expressed in K562 cells from electroporated CD38 mRNA; also called cell surface CD38; membrane-expressed CD38; source: endogenous, on RPMI8226, Daudi and human PBMC cells
Briefly: flow cytometry on cells; purified scFv incubated with hPBMC, Daudi or RPMI8226 cells, fluorescence labeled secondary antibody; MFI normalised to that of 028 scFv. Conditions: one partner purified.

In the next test the target is T2, ECD domain of mouse CD38 (Mus musculus, UniProt P56528).
T2 construct: mouse CD38, extracellular domain; also called mCD38-ECD
T2 sequence (P56528 45-304): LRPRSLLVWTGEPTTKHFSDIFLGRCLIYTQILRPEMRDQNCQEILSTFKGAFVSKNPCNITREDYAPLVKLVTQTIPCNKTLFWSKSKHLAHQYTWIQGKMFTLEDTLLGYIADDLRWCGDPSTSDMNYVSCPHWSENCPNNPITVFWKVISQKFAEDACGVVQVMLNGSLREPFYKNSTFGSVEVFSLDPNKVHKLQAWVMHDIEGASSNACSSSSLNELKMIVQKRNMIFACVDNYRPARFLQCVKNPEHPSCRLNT
Briefly: BLI; purified scFv antibodies against mCD38-ECD on an Octet; set-up for the mouse protein not told. As to conditions: both partners purified.

The target in test [2] is T3, Recombinant human CD38 extracellular domain (amino acids 43–300, hCD38-ECD) (Homo sapiens, UniProt P28907, biotin (EZ-Link NHS-PEG4-biotin) for panning and for capture on the SA biosensor; not said for the cross-linking).
T3 construct: human CD38, extracellular domain, amino acids 43-300; also called purified CD38; extracellular domain of human CD38; source: bought: Sino Biological, Cat. No. 10818-H08H
Briefly: BLI; Octet Red96, room temperature; biotin conjugated hCD38-ECD captured on SA biosensor; scFv in PBS, 0.02% Tween-20, 0.05% BSA, pH 7.4; association 300 s, dissociation 1200 s; 1:1 Langmuir model; for RP02 (biphasic dissociation) only the initial 0-330 s fitted, apparent KD. As to conditions: both partners purified.

B1: anti-CD38 scFv antibody RP02 (scFv, V domains shown)
VH: PAQLVESGPGLVKPSGTLSLTCAVSGGSISSSNWWSWVRQPPGKGLEWIGEIYHSGSTNYNPSLKSRVTISVDKSKNQFSLKLSSVTAADTAVYYCAREDYYYYMDVWGKGTTVTVQS
VL: QSVLTQPPSVSAAPGQKVTISCSGSSSNIGNNYVSWYQQLPGTAPKLLIYDNNKRPSGIPDRFSGSKSGTSATLGITGLQTGDEADYYCGTWDSSLSAGVFGGGTKLTVL
notes: selected from a combinatorial scFv phage library; In the functional rows the scFv stands in a CAR on T cells; also called RP02 scFv; source: purified scFv
Turning to B1, the binding result in test [1] is “binds”; in the test with ECD domain of mouse CD38 it was “no binding”.

B2: high-affinity anti-CD38 antibody 028 (scFv) (scFv, V domains shown)
VH: QVQLVQSGAEVKKPGSSVKVSCKAFGGTFSSYAISWVRQAPGQGLEWMGRIIRFLGIANYAQKFQGRVTLIADKSTNTAYMELSSLRSEDTAVYYCAGEPGERDPDAVDIWGQGTMVTVSS
VL: DIQMTQSPSSLSASVGDRVTITCRASQGIRSWLAWYQQKPEKAPKSLIYAASSLQSGVPSRFSGSGSGTDFTLTISSLQPEDFATYYCQQYNSYPLTFGGGTKVEIK
notes: In the functional rows the scFv stands in a CAR on T cells; source: purified scFv
Take B2: in test [2], the Kd is 0.65 nM.
